For data set [1], the target named is T1, His6-MBP-FXR2P P474S and P493N (Homo sapiens, UniProt P51116 1-673, P474S;P493N). Kind of data set: fluorescence anisotropy; 75 mM K+, 5 mM Mg2+; FA: 20 mM Tris pH 7.5, 75 mM KCl, 5 mM MgCl2, 1 uM BSA, 1 mM DTT, 100 ng/uL tRNA, ~5 nM RNA, RT 1 h; EMSA: 50 mM Tris pH 7.5, 145 mM KCl, 5 mM MgCl2, 1 uM BSA. The settings on record: protein: recombinant; tags: N-terminal His6-MBP; label: 3' fluorescein; G-quadruplex forming.

For data set [2], the target named is T2, His6-MBP-FMRP P451S (Homo sapiens, UniProt Q06787 1-632, P451S). The data set is described as above.
The target of data set [3] is T1, His6-MBP-FXR2P P474S and P493N. Kind of data set: EMSA; 250 nM protein; FA: 20 mM Tris pH 7.5, 75 mM KCl, 5 mM MgCl2, 1 uM BSA, 1 mM DTT, 100 ng/uL tRNA, ~5 nM RNA, RT 1 h; EMSA: 50 mM Tris pH 7.5, 145 mM KCl, 5 mM MgCl2, 1 uM BSA. As to conditions: protein: recombinant, tags: N-terminal His6-MBP. (A gel shift assay detects complexes by their altered migration in electrophoresis.)

Data set [4] addresses T2, His6-MBP-FMRP P451S. Described as above.

T1 sequence (P51116 whole entry P474S/P493N): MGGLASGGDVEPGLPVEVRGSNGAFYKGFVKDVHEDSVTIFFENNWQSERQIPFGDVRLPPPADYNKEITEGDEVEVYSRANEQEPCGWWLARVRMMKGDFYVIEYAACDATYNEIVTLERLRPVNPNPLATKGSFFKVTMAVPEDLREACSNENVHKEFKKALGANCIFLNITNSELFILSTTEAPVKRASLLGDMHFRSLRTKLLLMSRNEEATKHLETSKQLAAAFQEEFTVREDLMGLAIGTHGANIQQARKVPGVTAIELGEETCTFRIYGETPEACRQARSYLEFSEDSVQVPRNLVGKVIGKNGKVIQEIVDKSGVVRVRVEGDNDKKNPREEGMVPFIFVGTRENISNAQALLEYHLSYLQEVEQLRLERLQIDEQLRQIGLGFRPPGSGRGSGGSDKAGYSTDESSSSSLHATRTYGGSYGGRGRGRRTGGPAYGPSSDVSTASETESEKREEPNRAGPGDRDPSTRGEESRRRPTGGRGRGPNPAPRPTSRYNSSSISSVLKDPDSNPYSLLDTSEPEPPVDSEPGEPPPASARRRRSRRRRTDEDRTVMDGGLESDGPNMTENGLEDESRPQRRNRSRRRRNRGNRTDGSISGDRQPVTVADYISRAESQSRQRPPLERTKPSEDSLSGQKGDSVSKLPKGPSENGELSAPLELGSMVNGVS

A word on the Kd: it is the concentration at which binding is half-saturated. GGGGGGGGGGGGGGGGGU (structured_RNA) [poly-G17U]: the figures for the Kd in data set [1] and in data set [2] were 3.1 ± 0.4 nM and 5.6 nM, respectively.

With GCUAUCCAGAUUCUGAUU (ssRNA) [CR1], the binding result in data set [3] (label: 3' fluorescein, single strand, no predicted G-quadruplex) is reported as “no binding”; in data set [4] it was “no binding”.

B1: ΔKC2 (structured_RNA)
RNA: GGGCGAAUUCGGGAUUCCGACCAGAAGGGGCUAAGGAAUGGUGGGACGAGCUAGCGGCUGGUAUGUGCGUCU
Consider B1, for which the binding result in data set [3] (label: 3' fluorescein (FTSC, periodate-oxidized 3' end), loop-loop pseudoknot (kissing complex)) is reported as “binds”; in data set [4], “binds”.

The values above are taken from paper PMC7522082, “A simple procedure for bacterial expression and purification of the fragile X protein family”.
